Experimental data published in publication PMC11066147.
Several values for one entry are separate records, joined by “and”; a condition that tells them apart may be missing. Identical values can stand only once. Like-named read-outs stand apart in the source and are kept apart here.

Columns and labels:
Test in all cases: SPR
[1] = biological target: PfHsp70-zLS (linker switch mutant of PfHsp70-z carrying the linker of canonical Hsp70) (Plasmodium falciparum) (UniProt Q8IC01)
[2] = biological target: DnaKLS (linker switch mutant of DnaK harbouring the PfHsp70-z linker) (E. coli) (UniProt P0A6Y8)
[3] = biological target: PfHsp70-1LS (linker switch mutant of PfHsp70-1 carrying the linker of PfHsp70-z) (Plasmodium falciparum) (UniProt Q8IB24)
[4] = biological target: PfHsp70-zLS (linker switch mutant of PfHsp70-z carrying the linker of canonical Hsp70) (Plasmodium falciparum) (UniProt Q8IC01); remark: listed apart in the source
[5] = biological target: DnaKLS (linker switch mutant of DnaK harbouring the PfHsp70-z linker) (E. coli) (UniProt P0A6Y8); remark: listed apart in the source
[6] = biological target: PfHsp70-1LS (linker switch mutant of PfHsp70-1 carrying the linker of PfHsp70-z) (Plasmodium falciparum) (UniProt Q8IB24); remark: listed apart in the source

koff [2]	kon [2]	Substance	Kd [1] [nM]	Kd [2] [nM]	Kd [3]	Kd [4] [nM]	Kd [5] [nM]	Kd [6] [nM]	koff [3]	kon [3]
–	–	ALLLMYRR (peptide)	36.5	1950	89.4 nM	41.6	2440	99.3	–	–
–	–	ANNNMYRR (peptide)	–	1770	778 nM	3.3	1690	977	–	–
0.0714 s⁻¹ and 0.0903 s⁻¹ and 0.0492 s⁻¹	–	DnaKLS (linker switch mutant of DnaK harbouring the PfHsp70-z linker) (from UniProt P0A6Y8 1-638) (natural protein)	–	–	–	–	–	–	–	–
–	45700 M⁻¹ s⁻¹ and 73200 M⁻¹ s⁻¹ and 63200 M⁻¹ s⁻¹	E. coli Hsp70 (DnaK) (from UniProt P0A6Y8 1-638) (natural protein)	–	–	–	–	–	–	–	–
–	–	NRLLTG (peptide)	20.7	891	682 nM	21.1	962	174	–	–
–	–	NRNNTG (peptide)	59.5	716	132 nM	25.6	855	466	–	–
–	–	PfHsp70-1LS (linker switch mutant of PfHsp70-1 carrying the linker of PfHsp70-z) (from UniProt Q8IB24 1-677) (natural protein)	–	–	42400 nM and 17200 nM and 59000 nM	–	–	–	0.0447 s⁻¹ and 0.0633 s⁻¹ and 0.0666 s⁻¹	–
–	–	Plasmodium falciparum heat shock protein 70-1 (PfHsp70-1) (from UniProt Q8IB24 1-677) (natural protein)	–	–	4700 nM and 3370 nM and 998 nM	–	–	–	0.0935 s⁻¹ and 0.0539 s⁻¹ and 0.0392 s⁻¹	19900 M⁻¹ s⁻¹ and 16000 M⁻¹ s⁻¹ and 39500 M⁻¹ s⁻¹
